Data: US20240360218A1 (KYMAB, published 2024)
One block for each binder: values may come before it.

What was measured:
PD-L1-Fc (R&D Systems) = target: T1, PD-L1-Fc (R&D Systems) (UniProt Q9NZQ7 19-239); assay: plate ELISA/DELFIA (Example 5d): biotinylated antibody on plate-bound PD-L1-Fc, streptavidin-Eu, TRF at 615 nm
T1 construct: not shown: Fc part of the bought fusion protein, not described
Method: Excess protein was removed by washing with PBS-Tween (0.1% v/v) and the wells were blocked with 250 μL/well Pierce Protein Free Blocking Buffer (Thermo, 37572) for 1 hour, after which plates were washed as described previously. […] 100 μL each antibody dilution was added to the plates in duplicate and incubated for 1 hour at room temperature, before washing as stated above. Antibody binding was detected using streptavidin labelled Europium (Perkin Elmer) diluted 1/1000 in DELFIA Assay buffer (Perkin Elmer). Plates were washed with TBS (Tris buffered saline)-Tween (0.1% v/v) and 50 μL/well of DELFIA Enhancement solution (Perkin Elmer) was added to the plate. Time-resolved fluorescence was measured at 615 nm on an Envision plate reader (PerkinElmer).

[1] = target: T2, hPD-L1-his (in-house generated recombinant human PD-L1, his-tagged) (human, UniProt Q9NZQ7 19-238, limits assumed, biotinylated in the ELISA and AlphaScreen assays (site not stated)); assay: SPR (ProteOn), anti-human Fc capture, 25 C
T2 construct: also called biotinylated hPD-L1-his; biotinylated His-PD-L1
T2 sequence (Q9NZQ7 19-238 limits assumed): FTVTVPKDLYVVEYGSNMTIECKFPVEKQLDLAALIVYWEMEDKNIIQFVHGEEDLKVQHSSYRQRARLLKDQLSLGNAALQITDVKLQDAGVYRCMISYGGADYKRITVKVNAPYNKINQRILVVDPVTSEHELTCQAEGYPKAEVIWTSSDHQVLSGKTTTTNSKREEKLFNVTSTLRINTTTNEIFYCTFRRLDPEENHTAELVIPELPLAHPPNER
Method: Label-free surface plasmon resonance (SPR) analysis was carried out on the ProteOn XPR36 (BioRad) array SPR machine. […] The data was analysed using the 1:1 model inherent to the ProteOn XPR36 analysis software.
SPR analysis was performed as per Example 4 with the following amendments: analysis was performed at 37° C. as well as 25° C. to increase the stringency of the assay.

T1 sequence (Q9NZQ7 19-239 limits assumed): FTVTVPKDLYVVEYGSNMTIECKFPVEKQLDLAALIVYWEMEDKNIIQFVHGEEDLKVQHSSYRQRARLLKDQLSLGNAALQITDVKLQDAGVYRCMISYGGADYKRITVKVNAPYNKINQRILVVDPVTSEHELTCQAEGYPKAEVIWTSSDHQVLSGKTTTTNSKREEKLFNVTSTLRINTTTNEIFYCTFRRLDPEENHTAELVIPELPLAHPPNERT

EC50 (read off the curve) (PD-L1-Fc (R&D Systems)): ~0.4 nM
B1: 84G09 (antibody, human IgG1, V domains shown)
VH: EVQLVESGGGLVQPGRSLRLSCAASGFTFDDYAMHWVRQTPGKGLEWVSGISWKSNIIGYADSVKGRFTISRDNAKNSLYLQMNSLRAEDTALYYCARDITGSGSYGWFDPWGQGTLVTVSS
VL: DIQMTQSPSSLSASVGDRVTITCRASQSISSYLNWYQQKPGKAPKPLIYVASSLQSGVPSSFSGSGSGTDFTLTISSLQPEDFATYYCQQSYSNPITFGQGTRLEIK
notes: kappa light chain; also called clone 84G09

koff [1]: 6.23e-05 s⁻¹
B2: 413G05 (antibody, human IgG1, V domains shown)
VH: QVQLVESGGGLVKPGGSLRLSCAASGFTFSDYYMSWIRQVPGKGLEWVSYISTSGSTIYYADSVKGRFTISRDNAKNSLYLQMNSLRAEDAAVYHCARGITGTNFYHYGLGVWGQGTTVTVSS
VL: DIQMTQSPSSVSASVGDRVTITCRASQGINSWLAWYQQKPGKAPKLLIYAASTLQSGVPSRFSGSGSGADFTLTISSLQPEDFATYYCQQVNSFPLTFGGGTKVEIK

EC50 (read off the curve) (PD-L1-Fc (R&D Systems)): ~0.4 nM
B3: 1D05 (antibody, V domains shown)
VH: EVQLVESGGGLVQPGRSLRLSCAASGFTFDDYAMHWVRQVPGKGLEWVSGISWIRTGIGYADSVKGRFTIFRDNAKNSLYLQMNSLRAEDTALYYCAKDMKGSGTYGGWFDTWGQGTLVTVSS
VL: not shown
notes: kappa light chain; also called clone 1D05; anti-PD-L1 antibody 1D05
